Common to all, as to assay: ITC
Background: ITC needs no label: the signal is the heat of the interaction.

Assay [1] has as its target AP2 µ2 C-terminal subdomain (C-µ2), residues 160-435 of rat µ2 (rat) (UniProt P84092).
Assay [2] addresses T1, AP2 µ2 C-terminal subdomain (C-µ2), residues 160-435 of rat µ2 (rat, UniProt P84092 160-435).
T1 sequence: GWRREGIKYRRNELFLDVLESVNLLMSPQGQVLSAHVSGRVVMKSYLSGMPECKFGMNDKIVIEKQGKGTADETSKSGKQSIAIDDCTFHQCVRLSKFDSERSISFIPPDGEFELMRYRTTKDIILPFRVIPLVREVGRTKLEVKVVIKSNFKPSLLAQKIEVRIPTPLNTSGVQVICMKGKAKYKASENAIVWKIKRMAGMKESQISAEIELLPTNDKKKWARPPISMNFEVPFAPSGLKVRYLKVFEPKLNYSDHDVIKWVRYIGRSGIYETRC

For assay [3], the target named is T1, AP2 µ2 C-terminal subdomain (C-µ2), …. This is another data set of the same source.

Read-outs that look alike come from different tables or passages of the source. Bounds are passed on as bounds.

The Kd is the equilibrium constant for the complex coming apart. Higher therefore signals lower affinity.

Consider EGFR peptide (FYRLMS), for which the Kd in assay [1] was determined as 20 µM.
Still for that read-out and setting: the figure for integrin α4 peptide (QYKSILQE) is 72 µM.

B1: α5-integrin peptide (YKLGFFKRSLPYGTAMEKAQLKPPATSDA) (peptide)
peptide: YKLGFFKRSLPYGTAMEKAQLKPPATSDA
The molecule B1 registered an equilibrium dissociation constant (Kd) in assay [2] above 300 µM.

B2: TGN38 peptide (DYQRLN) (peptide)
peptide: DYQRLN
B2: the Kd in assay [3] was around 4 µM.

B3: β1-integrin peptide (peptide)
peptide: KLLMIIHDRREFAKFEKEKMNAKWDTGENPIYKSAVTTVVNPKYEGK
As for B3, the Kd in assay [2] was above 300 µM.

B4: α2 integrin peptide (WKLGFFKRKYEKMTKNPDEIDETTELSS) (peptide)
peptide: WKLGFFKRKYEKMTKNPDEIDETTELSS
As to B4, the Kd in assay [2] was around 50 µM.

B5: transferrin receptor peptide (SYTRFS) (peptide)
peptide: SYTRFS
In assay [3], B5 gave a Kd of around 15 µM.

Values taken from paper PMC5130146 (Nature structural & molecular biology, 2016).
